These results are taken from US20150283263A1 (ADC THERAPEUTICS S A, published 2015).

By EC50 is commonly meant the concentration giving half of the maximal effect.

Assay [1] has as its target T1, CD25 (human, UniProt P01589 22-272).
T1 construct: whole, on cells; Endogenous CD25 on cell lines; also called surface CD25 on Karpas299 and SU-DHL-1 cells
T1 sequence (looked up): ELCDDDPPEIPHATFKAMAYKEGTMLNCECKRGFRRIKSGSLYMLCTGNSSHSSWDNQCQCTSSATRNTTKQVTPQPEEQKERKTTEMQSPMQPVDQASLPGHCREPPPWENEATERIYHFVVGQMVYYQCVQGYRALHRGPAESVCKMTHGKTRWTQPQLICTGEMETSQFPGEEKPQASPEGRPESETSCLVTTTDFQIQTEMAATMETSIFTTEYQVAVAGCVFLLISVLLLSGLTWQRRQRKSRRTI
As to the kind of experiment: flow cytometry on Karpas299 cells (surface CD25), average of three experiments. Here is the method:
(§1) Karpas299 and SU-DHL-1 anaplastic large cell lymphoma (ALCL)-derived cell lines have been previously reported to express CD25 (2,3). To confirm their expression profile, CD25 surface expression was analyzed by flow cytometry.
(§2) Surface CD25 expression on Karpas and SU-DHL-1 was determined by flow cytometry. Graphs represent the average of three (Karpas299) or four independent experiments (SU-DHL-1). EC₅₀ values are reported in ng/ml.
In general terms: Flow cytometry measures light scatter and fluorescence of single cells or particles in a stream.

Assay [2] deals with T1, CD25. The assay is described as follows: flow cytometry on SU-DHL-1 cells (surface CD25), average of four experiments. The procedure: as §1, §2

B1: HuMax-TAC (antibody, IgG1, V domains shown)
VH: QVQLVQSGAEVKKPGSSVKVSCKASGGTFSRYIINWVRQAPGQGLEWMGRIIPILGVENYAQKFQGRVTITADKSTSTAYMELSSLRSEDTAVYYCARKDWFDYWGQGTLVTVSS
VL: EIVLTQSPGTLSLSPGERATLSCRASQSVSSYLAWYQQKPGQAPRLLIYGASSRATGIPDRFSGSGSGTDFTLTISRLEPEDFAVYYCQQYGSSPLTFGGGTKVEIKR
notes: also called AB12; Antibody AB12
In the case of B1, the values for the half-maximal effective concentration (EC50) in assay [1] and in assay [2] were 0.0202 µg/mL and 0.0341 µg/mL, respectively.
